Laboratory results from the supplement of paper PMC5998384.

Assays:
HeLa Kyoto [1] = experiment: solubility in G1/S (NP-40 vs SDS abundance) (log2 ratio); higher = more soluble; details: cell cycle stage: G1/S
HeLa Kyoto [2] = experiment: melting temperature (median over replicates), in situ; higher = more thermally stable
HeLa Kyoto [3] = experiment: solubility change mitosis vs G1/S (difference of NP-40 vs SDS log2 ratios) (log2 ratio difference); higher = more soluble in mitosis
HeLa Kyoto [4] = experiment: thermal stability score vs G1/S (z-score of summed log2 fold changes over temperatures); higher = more thermally stable than in G1/S
[5] = cell cycle stage: early G1 (4.5 h after nocodazole release)
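Wherever melting temperature (median over replicates), in situ is given: HeLa Kyoto cells synchronized by double thymidine or nocodazole block, proteins quantified by TMT10plex mass spectrometry, three independent biological replicates.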
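Wherever solubility change mitosis vs G1/S (difference of NP-40 vs SDS log2 ratios) is given: synchronized HeLa Kyoto cells (double thymidine block for G1/S, nocodazole release for mitosis), protein amounts in NP-40 versus SDS lysates quantified by mass spectrometry, three biological replicates.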
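Wherever solubility in G1/S (NP-40 vs SDS abundance) is given: HeLa Kyoto cells arrested at G1/S by double thymidine block, proteins quantified by TMT10plex mass spectrometry in mild NP-40 versus SDS extracts, three biological replicates.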
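Wherever thermal stability score vs G1/S (z-score of summed log2 fold changes over temperatures) is given: synchronized HeLa Kyoto cells, proteins quantified by TMT10plex mass spectrometry, three biological replicates, mitosis taken 0.5 h after nocodazole release, G1/S directly after double thymidine block.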

| Sequence | solubility in G1/S (log2) (HeLa Kyoto [1]) | melting temperature (HeLa Kyoto [2]; cell cycle stage: G1/S) [°C] | melting temperature (HeLa Kyoto [2]; cell cycle stage: mitosis) [°C] | solubility change mitosis (log2) (HeLa Kyoto [3]) | thermal stability score (HeLa Kyoto [4]; [5]) | thermal stability score (HeLa Kyoto [4]; cell cycle stage: mitosis) |
| --- | --- | --- | --- | --- | --- | --- |
| MEGNRDEAEKCVEIAREALNAGNREKAQRFLQKAEKLYPLPSARALLEIIMKNGSTAGNSPHCRKPSGSGDQSKPNCTKDSTSGSGEGGKGYTKDQVDGVLSINKCKNYYEVLGVTKDAGDEDLKKAYRKLALKFHPDKNHAPGATDAFKKIGNAYAVLSNPEKRKQYDLTGNEEQACNHQNNGRFNFHRGCEADITPEDLFNIFFGGGFPSGSVHSFSNGRAGYSQQHQHRHSGHEREEERGDGGFSVFIQLMPIIVLILVSLLSQLMVSNPPYSLYPRSGTGQTIKMQTENLGVVYYVNKDFKNEYKGMLLQKVEKSVEEDYVTNIRNNCWKERQQKTDMQYAAKVYRDDRLRRKADALSMDNCKELERLTSLYKGG [DNAJB14] | 0.511 | 51.3 | 51.9 | -0.15 | -1.51 | 0.131 |
| MAENTEGDLNSNLLHAPYHTGDPQLDTAIGQWLRWDKNPKTKEQIENLLRNGMNKELRDRLCCRMTFGTAGLRSAMGAGFCYINDLTVIQSTQGMYKYLERCFSDFKQRGFVVGYDTRGQVTSSCSSQRLAKLTAAVLLAKDVPVYLFSRYVPTPFVPYAVQKLKAVAGVMITASHNRKEDNGYKVYWETGAQITSPHDKEILKCIEECVEPWNGSWNDNLVDTSPLKRDPLQDICRRYMEDLKKICFYRELNSKTTLKFVHTSFHGVGHDYVQLAFKVFGFKPPIPVPEQKDPDPDFSTVKCPNPEEGESVLELSLRLAEKENARVVLATDPDADRLAAAELQENGCWKVFTGNELAALFGWWMFDCWKKNKSRNADVKNVYMLATTVSSKILKAIALKEGFHFEETLPGFKWIGSRIIDLLENGKEVLFAFEESIGFLCGTSVLDKDGVSAAVVVAEMASYLETMNITLKQQLVKVYEKYGYHISKTSYFLCYEPPTIKSIFERLRNFDSPKEYPKFCGTFAILHVRDVTTGYDSSQPNKKSVLPVSKNSQMITFTFQNGCVATLRTSGTEPKIKYYAEMCASPDQSDTALLEEELKKLIDALIENFLQPSKNGLIWRSV [PGM2L1] | 0.0482 | 53.4 | 54.2 | -0.173 | 0.325 | -0.133 |
| MSEWMKKGPLEWQDYIYKEVRVTASEKNEYKGWVLTTDPVSANIVLVNFLEDGSMSVTGIMGHAVQTVETMNEGDHRVREKLMHLFTSGDCKAYSPEDLEERKNSLKKWLEKNHIPITEQGDAPRTLCVAGVLTIDPPYGPENCSSSNEIILSRVQDLIEGHLTASQ [GEMIN6] | 0.271 | 53.6 | 52.3 | 0.0835 | -0.4 | -2.06 |
| MGAYLSQPNTVKCSGDGVGAPRLPLPYGFSAMQGWRVSMEDAHNCIPELDSETAMFSVYDGHGGEEVALYCAKYLPDIIKDQKAYKEGKLQKALEDAFLAIDAKLTTEEVIKELAQIAGRPTEDEDEKEKVADEDDVDNEEAALLHEEATMTIEELLTRYGQNCHKGPPHSKSGGGTGEEPGSQGLNGEAGPEDSTRETPSQENGPTAKAYTGFSSNSERGTEAGQVGEPGIPTGEAGPSCSSASDKLPRVAKSKFFEDSEDESDEAEEEEEDSEECSEEEDGYSSEEAENEEDEDDTEEAEEDDEEEEEEMMVPGMEGKEEPGSDSGTTAVVALIRGKQLIVANAGDSRCVVSEAGKALDMSYDHKPEDEVELARIKNAGGKVTMDGRVNGGLNLSRAIGDHFYKRNKNLPPEEQMISALPDIKVLTLTDDHEFMVIACDGIWNVMSSQEVVDFIQSKISQRDENGELRLLSSIVEELLDQCLAPDTSGDGTGCDNMTCIIICFKPRNTAELQPESGKRKLEEVLSTEGAEENGNSDKKKKAKRD [PPM1G] | 0.104 | 48.4 | 49.4 | -0.0729 | 2.65 | 8.41 |
| MEASWRQVAGGRGRSRGRATAAPSGNGVHLRGAGGGREKGSVGAVPSGTSPGGVATTAAAGSRHSPAGSQALQTTAASELMSQKKFEEIKKANQAAARKLVEEQFSSSSEEGDEDFEGKQGKILANTFITYTTQTDGDTRELERTKQYVNEAFQAGAMTCLICIASVKRNQAVWSCSGCFCIFHMPCIQKWAKDSQFLVSSVTDDDFGKKDCPWPCPKCRFEYKRSETPSRYYCYCGKVEDPPLDPWLVPHSCGQVCEREFKPPCGHKCLLLCHPGPCPPCPKMVTTTCYCKKAKPIPRRCSAKEWSCQLPCGQKLLCGQHKCENPCHAGSCQPCPRVSRQKCVCGKKVAERSCASPLWHCDQVCGKTLPCGNHTCEQVCHVGACGECPRSGKRFCPCQKSKFSLPCTEDVPTCGDSCDKVLECGIHRCSQRCHRGPCETCRQEVEKHCRCGKHTKRMPCHKPYLCETKCVKMRDCQKHQCRRKCCPGNCPPCDQNCGRTLGCRNHKCPSVCHRGSCYPCPETVDVKCNCGNTKVTVPCGRERTTRPPKCKEQCSRPPTCHHTSQEKHRCHFGSCPPCHQPCQKVLEKCGHLCPAPCHDQALIKQTGRHQPTGPWEQPSEPAFIQTALPCPPCQVPIPMECLGKHEVSPLPCHAVGPYSCKRVCGRILDCQNHTCMKECHKVTKTDGCTGKNKAGPECLHCEEGCSKSRPLGCLHPCILRCHPGECPPCVQMLRIKCHCKITSLYVECRKITTADVNEKNLLSCCKNQCPKELPCGHRCKEMCHPGECPFNCNQKVKLRCPCKRIKKELQCNKVRENQVSIECDTTCKEMKRKASEIKEAEAKAALEEEKRRQQAELEAFENRLKGRRKKNRKRDEVAVELSLWQKHKYYLISVCGVVVVVFAWYITHDVN [NFXL1] | -0.509 | 50.2 | 50.5 | 0.0441 | 1.02 | 1.56 |
| MAEISDLDRQIEQLRRCELIKESEVKALCAKAREILVEESNVQRVDSPVTVCGDIHGQFYDLKELFRVGGDVPETNYLFMGDFVDRGFYSVETFLLLLALKVRYPDRITLIRGNHESRQITQVYGFYDECLRKYGSVTVWRYCTEIFDYLSLSAIIDGKIFCVHGGLSPSIQTLDQIRTIDRKQEVPHDGPMCDLLWSDPEDTTGWGVSPRGAGYLFGSDVVAQFNAANDIDMICRAHQLVMEGYKWHFNETVLTVWSAPNYCYRCGNVAAILELDEHLQKDFIIFEAAPQETRGIPSKKPVADYFL [PPP4C] | -0.237 | 54.8 | 55.3 | -0.0748 | 0.0354 | -1.42 |
